Our source for the Kd values is publication PMC8339797 (2021).

Numbered stars: 1 amine (or outer) side, 2 acyl side, 3 side chain; on linkers, the order of the positions; unused ones are H or OH. Square brackets hold non-standard residues; d marks the D form. Side chains are listed from the residue outwards. dextran = polysaccharide of α-(1–6)-linked D-glucose units with low branching; Propanoyl(3-triazol-4-yl) = O=C(CCc1cn([*:1])nn1)[*:2]

The assay concerns the target T1, RGD-decorated Fc-dextran-MMAE construct 20 (cyclo[RGDfK] multimer) (also: multivalent on dextran conjugated to aglycosylated human Fc N297A with MMAE).
T1 chain: cyclo(RGD[dF]K([Propanoyl(3-triazol-4-yl)-dextran]))
Nature of the assay: flow cytometry cell binding (apparent KD). On the technique in general: Flow cytometry measures light scatter and fluorescence of single cells or particles in a stream.

B1: integrin alpha-v beta-3 (on U87MG cells) (protein)
chain 1: FNLDVDSPAEYSGPEGSYFGFAVDFFVPSASSRMFLLVGAPKANTTQPGIVEGGQVLKCDWSSTRRCQPIEFDATGNRDYAKDDPLEFKSHQWFGASVRSKQDKILACAPLYHWRTEMKQEREPVGTCFLQDGTKTVEYAPCRSQDIDADGQGFCQGGFSIDFTKADRVLLGGPGSFYWQGQLISDQVAEIVSKYDPNVYSIKYNNQLATRTAQAIFDDSYLGYSVAVGDFNGDGIDDFVSGVPRAARTLGMVYIYDGKNMSSLYNFTGEQMAAYFGFSVAATDINGDDYADVFIGAPLFMDRGSDGKLQEVGQVSVSLQRASGDFQTTKLNGFEVFARFGSAIAPLGDLDQDGFNDIAIAAPYGGEDKKGIVYIFNGRSTGLNAVPSQILEGQWAARSMPPSFGYSMKGATDIDKNGYPDLIVGAFGVDRAILYRARPVITVNAGLEVYPSILNQDNKTCSLPGTALKVSCFNVRFCLKADGKGVLPRKLNFQVELLLDKLKQKGAIRRALFLYSRSPSHSKNMTISRGGLMQCEELIAYLRDESEFRDKLTPITIFMEYRLDYRTAADTTGLQPILNQFTPANISRQAHILLDCGEDNVCKPKLEVSVDSDQKKIYIGDDNPLTLIVKAQNQGEGAYEAELIVSIPLQADFIGVVRNNEALARLSCAFKTENQTRQVVCDLGNPMKAGTQLLAGLRFSVHQQSEMDTSVKFDLQIQSSNLFDKVSPVVSHKVDLAVLAAVEIRGVSSPDHVFLPIPNWEHKENPETEEDVGPVVQHIYELRNNGPSSFSKAMLHLQWPYKYNNNTLLYILHYDIDGPMNCTSDMEINPLRIKISSLQTTEKNDTVAGQGERDHLITKRDLALSEGDIHTLGCGVAQCLKIVCQVGRLDRGKSAILYVKSLLWTETFMNKENQNHSYSLKSSASFNVIEFPYKNLPIEDITNSTLVTTNVTWGIQPAPMPV
chain 2: GPNICTTRGVSSCQQCLAVSPMCAWCSDEALPLGSPRCDLKENLLKDNCAPESIEFPVSEARVLEDRPLSDKGSGDSSQVTQVSPQRIALRLRPDDSKNFSIQVRQVEDYPVDIYYLMDLSYSMKDDLWSIQNLGTKLATQMRKLTSNLRIGFGAFVDKPVSPYMYISPPEALENPCYDMKTTCLPMFGYKHVLTLTDQVTRFNEEVKKQSVSRNRDAPEGGFDAIMQATVCDEKIGWRNDASHLLVFTTDAKTHIALDGRLAGIVQPNDGQCHVGSDNHYSASTTMDYPSLGLMTEKLSQKNINLIFAVTENVVNLYQNYSELIPGTTVGVLSMDSSNVLQLIVDAYGKIRSKVELEVRDLPEELSLSFNATCLNNEVIPGLKSCMGLKIGDTVSFSIEAKVRGCPQEKEKSFTIKPVGFKDSLIVQVTFDCDCACQAQAEPNSHRCNNGNGTFECGVCRCGPGWLGSQCECSEEDYRPSQQDECSPREGQPVCSQRGECLCGQCVCHSSDFGKITGKYCECDDFSCVRYKGEMCSGHGQCSCGDCLCDSDWTGYYCNCTTRTDTCMSSNGLLCSGRGKCECGSCVCIQPGSYGDTCEKCPTCPDACTFKKECVECKKFDRGALHDENTCNRYCRDEIESVKELKDTGKDAVNCTYKNEDDCVVRFQYYEDSSGKSILYVVEEPECPKGPD
Turning to B1, the Kd was 33 nM.
